Target: full-length mScarlet-tagged tau (2N4R) (human) (UniProt P10636)
Experiment: TIRF microscopy, condensate enrichment assay

For “GFP-tagged tau “bonsai” construct (fusion between the N- and C-terminus, lacking the MTBD)”, the fold enrichment within mScarlet-2N4R condensates over the lattice was 1.3 fold.
